Experimental data as given in article PMC10322906.

Biological target: CXCR4-Tango
Assay: Tango (TEV-cleavage luciferase reporter of arrestin recruitment); Tango-Trio, basal: HTTL-B1 / HTTL-B2 cells transfected with GPCR-Tango constructs, with against without cumate (30 µg/mL) or cumate dose-response, no agonist; in Fig. 7 also with inverse agonists/antagonists at EC80

β-arrestin2-TEV219 (from UniProt P32121 1-409) (natural protein)
fold change in constitutive β-arrestin-2 recruitment (with against without cumate): 67 fold
